Patent US20230265215A1 (OMEROS, published 2023)

Key:
C1r = molecular target: T1, C1r (human, UniProt P00736 18-705, limits assumed); test: solid phase ELISA, against human MASP-2 as reference
T1 construct: Species read from 'Recombinant human MASP-2 or C1r, C1s, CFD, MASP-1 and MASP-3'
T1 sequence (looked up): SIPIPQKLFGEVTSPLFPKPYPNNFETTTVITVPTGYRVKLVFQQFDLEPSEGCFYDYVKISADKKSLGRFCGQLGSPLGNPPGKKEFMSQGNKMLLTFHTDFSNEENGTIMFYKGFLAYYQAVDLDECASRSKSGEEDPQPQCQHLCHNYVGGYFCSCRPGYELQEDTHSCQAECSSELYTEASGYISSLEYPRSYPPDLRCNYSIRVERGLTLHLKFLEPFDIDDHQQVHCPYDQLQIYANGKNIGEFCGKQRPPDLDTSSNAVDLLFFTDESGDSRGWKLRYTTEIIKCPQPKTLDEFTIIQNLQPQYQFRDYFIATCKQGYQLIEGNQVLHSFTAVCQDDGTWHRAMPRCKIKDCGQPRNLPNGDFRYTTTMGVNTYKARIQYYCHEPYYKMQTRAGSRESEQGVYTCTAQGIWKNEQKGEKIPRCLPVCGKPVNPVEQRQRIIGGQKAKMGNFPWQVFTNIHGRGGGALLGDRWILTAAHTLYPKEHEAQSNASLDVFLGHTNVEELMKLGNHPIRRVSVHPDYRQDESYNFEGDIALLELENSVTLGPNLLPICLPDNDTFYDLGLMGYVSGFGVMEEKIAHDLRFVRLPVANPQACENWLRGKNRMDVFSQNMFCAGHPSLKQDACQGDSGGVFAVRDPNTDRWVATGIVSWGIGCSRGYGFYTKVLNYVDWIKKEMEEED
Source text: (§1) The apparent dissociation constant (KD) was estimated by nonlinear regression using a 4-parameter logistic model.
(§2) Fold selectivity calculated as KD(related serine protease)/mean KD(MASP-2).

MASP-3 = molecular target: T2, MASP-3 (human, UniProt P48740-2 20-728, limits assumed); test: as above
T2 construct: Species read from 'Recombinant human MASP-2 or C1r, C1s, CFD, MASP-1 and MASP-3'
T2 sequence (looked up): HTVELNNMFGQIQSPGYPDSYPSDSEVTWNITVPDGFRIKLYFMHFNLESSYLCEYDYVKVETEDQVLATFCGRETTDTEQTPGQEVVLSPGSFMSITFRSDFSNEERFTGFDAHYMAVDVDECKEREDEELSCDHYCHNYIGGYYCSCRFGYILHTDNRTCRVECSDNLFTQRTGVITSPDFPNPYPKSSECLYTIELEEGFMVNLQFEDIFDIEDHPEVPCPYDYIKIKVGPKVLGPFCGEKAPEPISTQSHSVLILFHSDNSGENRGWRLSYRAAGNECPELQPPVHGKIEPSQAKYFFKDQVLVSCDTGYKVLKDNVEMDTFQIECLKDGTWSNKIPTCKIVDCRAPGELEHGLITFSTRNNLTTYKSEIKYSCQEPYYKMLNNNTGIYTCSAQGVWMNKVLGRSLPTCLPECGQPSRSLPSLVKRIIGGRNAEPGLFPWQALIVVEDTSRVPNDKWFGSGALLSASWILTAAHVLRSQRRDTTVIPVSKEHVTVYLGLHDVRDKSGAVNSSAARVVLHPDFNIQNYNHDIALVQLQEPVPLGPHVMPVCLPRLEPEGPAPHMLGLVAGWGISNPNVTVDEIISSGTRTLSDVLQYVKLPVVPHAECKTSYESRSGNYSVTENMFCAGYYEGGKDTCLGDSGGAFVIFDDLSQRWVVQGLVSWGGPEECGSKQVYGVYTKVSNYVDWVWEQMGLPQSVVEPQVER
Source text: as §1, §2

MASP-1 = molecular target: T3, MASP-1 (human, UniProt P48740 20-699, limits assumed); test: as above
T3 construct: Species read from 'Recombinant human MASP-2 or C1r, C1s, CFD, MASP-1 and MASP-3'
T3 sequence (looked up): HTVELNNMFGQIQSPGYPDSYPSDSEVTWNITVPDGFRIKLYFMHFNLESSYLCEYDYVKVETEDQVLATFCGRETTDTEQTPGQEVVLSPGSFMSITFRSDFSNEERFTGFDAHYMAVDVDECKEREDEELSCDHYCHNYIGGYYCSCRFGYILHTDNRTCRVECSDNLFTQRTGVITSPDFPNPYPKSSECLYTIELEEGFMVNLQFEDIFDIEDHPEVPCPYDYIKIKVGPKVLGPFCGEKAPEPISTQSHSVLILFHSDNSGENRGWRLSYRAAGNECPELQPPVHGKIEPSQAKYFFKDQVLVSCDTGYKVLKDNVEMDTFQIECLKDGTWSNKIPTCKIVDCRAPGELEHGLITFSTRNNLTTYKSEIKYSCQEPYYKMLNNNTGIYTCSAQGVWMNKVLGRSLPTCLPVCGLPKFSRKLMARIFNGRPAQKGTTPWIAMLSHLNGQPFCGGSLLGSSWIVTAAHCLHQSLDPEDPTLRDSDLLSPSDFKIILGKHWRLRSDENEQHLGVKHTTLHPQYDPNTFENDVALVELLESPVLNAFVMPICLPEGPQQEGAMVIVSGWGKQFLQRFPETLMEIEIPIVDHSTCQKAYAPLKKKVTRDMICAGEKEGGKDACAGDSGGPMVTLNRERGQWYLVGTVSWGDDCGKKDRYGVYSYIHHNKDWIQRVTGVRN
Source text: as §1, §2

[1] = molecular target: rabbit MASP-2 (endogenous, in rabbit serum) (rabbit); test: cell-based or functional assay
[2] = molecular target: mouse MASP-2 (endogenous, in mouse serum or hirudin plasma) (mouse, UniProt Q91WP0 20-685); test: cell-based or functional assay
[3] = molecular target: cynomolgus monkey MASP-2 (endogenous, in cynomolgus monkey serum) (cynomolgus monkey, UniProt O00187 16-686 (human entry), limits assumed); test: cell-based or functional assay
Sequence of cynomolgus monkey MASP-2 (endogenous, in cynomolgus monkey serum) (O00187 other isoform, or with tags, fused parts or gaps limits assumed): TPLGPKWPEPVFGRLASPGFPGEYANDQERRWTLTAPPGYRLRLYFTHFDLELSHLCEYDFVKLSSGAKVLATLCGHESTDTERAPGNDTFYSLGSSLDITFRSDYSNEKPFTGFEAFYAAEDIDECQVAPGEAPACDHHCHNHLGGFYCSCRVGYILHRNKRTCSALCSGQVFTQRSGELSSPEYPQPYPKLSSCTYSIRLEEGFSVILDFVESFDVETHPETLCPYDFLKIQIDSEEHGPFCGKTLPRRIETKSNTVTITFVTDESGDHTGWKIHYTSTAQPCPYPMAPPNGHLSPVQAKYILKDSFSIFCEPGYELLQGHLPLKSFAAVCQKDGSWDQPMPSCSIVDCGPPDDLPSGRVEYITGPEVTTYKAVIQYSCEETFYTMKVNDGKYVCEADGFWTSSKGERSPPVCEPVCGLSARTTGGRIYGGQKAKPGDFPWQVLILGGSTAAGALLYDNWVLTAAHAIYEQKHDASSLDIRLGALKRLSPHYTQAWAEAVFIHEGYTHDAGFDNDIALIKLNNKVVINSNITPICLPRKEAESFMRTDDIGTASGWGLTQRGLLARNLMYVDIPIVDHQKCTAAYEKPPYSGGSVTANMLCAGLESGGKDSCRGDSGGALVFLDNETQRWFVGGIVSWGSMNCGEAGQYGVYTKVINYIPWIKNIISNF

Sequence of mouse MASP-2 (endogenous, in mouse serum or hirudin plasma) (Q91WP0 20-685 limits assumed): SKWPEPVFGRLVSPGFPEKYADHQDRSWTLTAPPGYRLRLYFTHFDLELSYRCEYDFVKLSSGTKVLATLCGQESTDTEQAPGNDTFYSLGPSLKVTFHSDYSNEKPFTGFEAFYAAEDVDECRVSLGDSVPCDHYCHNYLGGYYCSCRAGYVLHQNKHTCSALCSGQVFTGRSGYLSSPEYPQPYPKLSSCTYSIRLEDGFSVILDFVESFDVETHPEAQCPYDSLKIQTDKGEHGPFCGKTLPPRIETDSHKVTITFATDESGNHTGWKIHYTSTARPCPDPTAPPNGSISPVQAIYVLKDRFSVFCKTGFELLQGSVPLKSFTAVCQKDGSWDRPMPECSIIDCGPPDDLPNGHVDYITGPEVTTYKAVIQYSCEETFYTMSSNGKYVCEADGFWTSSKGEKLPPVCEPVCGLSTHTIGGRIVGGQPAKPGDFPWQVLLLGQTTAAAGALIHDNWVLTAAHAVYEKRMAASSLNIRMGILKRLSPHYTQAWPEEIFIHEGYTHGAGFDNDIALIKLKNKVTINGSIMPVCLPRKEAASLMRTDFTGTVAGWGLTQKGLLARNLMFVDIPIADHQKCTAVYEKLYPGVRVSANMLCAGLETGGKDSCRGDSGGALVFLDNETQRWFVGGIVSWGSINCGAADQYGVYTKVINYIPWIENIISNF

Fold selectivity (KD related serine protease / mean KD MASP-2) (C1r): > 2000 fold | Fold selectivity (KD related serine protease / mean KD MASP-2) (MASP-3): > 2000 fold | Fold selectivity (KD related serine protease / mean KD MASP-2) (MASP-1): > 2000 fold | lectin-dependent C4 activation in 50% rabbit serum, IC50, Experiment 1 [1]: > 500 nM | lectin-dependent C4 activation in 50% rabbit serum, IC50, Experiment 2 [1]: > 500 nM | lectin-dependent C4 activation in 50% rabbit serum, IC50, Experiment 3 [1]: > 500 nM | lectin-dependent C4 activation in 50% mouse hirudin plasma, IC50, Experiment 1 [2]: 9.59 nM | lectin-dependent C4 activation in 50% mouse hirudin plasma, IC50, Experiment 2 [2]: 11.2 nM | lectin-dependent C4 activation in 50% mouse hirudin plasma, IC50, Experiment 3 [2]: 14.8 nM | lectin-dependent C4 activation in 50% mouse hirudin plasma, IC50, MEAN [2]: 11.9 nM | lectin-dependent C4 activation in 50% cynomolgus monkey serum, IC50, Experiment 1 [3]: 42.8 nM | lectin-dependent C4 activation in 50% cynomolgus monkey serum, IC50, Experiment 2 [3]: 44 nM | lectin-dependent C4 activation in 50% cynomolgus monkey serum, IC50, Experiment 3 [3]: 45.5 nM | lectin-dependent C4 activation in 50% cynomolgus monkey serum, IC50, MEAN [3]: 44.1 nM
B1: mAb OMS858 (humanized anti-MASP-2 antibody) (antibody, V domains shown)
VH: QVQLVQSGAEVKKPGASVKVSCKASGYTFTNHHMHWLRQAPGQGLEWIGDIDASDSETHYIEKFKDRATLTIDKSSSTAYMELSSLRSEDTAVYYCARGDITTTLRYFDVWGQGTLVTVSS
VL: DIQLTQSPSSLSASVGDRVTITCSASSSVRYMYWYQQKPGKAPKLLIYDTSNLASGVPSRFSGSGSGTDNTLTISSLQPEDFATYYCQQWSSYPLTFGQGTKVEIKR
notes: also called antibody OMS858; biotinylated OMS858
